Patent publication US20250122278A1, “ANTI-INTERLEUKIN-9 ANTIBODY AND USE THEREOF” (GUANGDONG KEGUANDA PHARMACEUTICAL TECHNOLOGY CO., LTD., priority 2022, published 2025)

Assays:
[1] = biological target: T1, biotin-conjugated IL-9-Fc (Biotin-IL-9-Fc) (UniProt P15248 19-144, biotin-conjugated (sites not given)); assay: flow cytometry blocking assay (IL-9-IL-9R blocking determination): serially diluted chimeric antibody against the binding of Biotin-IL-9-Fc to 293-IL-9R cells (IL-9R), MFI; unit taken from the x axis, the table prints none
T1 construct: range 19-144; also called Fc-IL-9 recombinant protein; Fc-IL-9; not shown: Fc tag (Fc2 in the vector name pLVX-Fc2-IL9 (19-144)-Puro)
T1 sequence (P15248 19-144 limits assumed, form in doubt): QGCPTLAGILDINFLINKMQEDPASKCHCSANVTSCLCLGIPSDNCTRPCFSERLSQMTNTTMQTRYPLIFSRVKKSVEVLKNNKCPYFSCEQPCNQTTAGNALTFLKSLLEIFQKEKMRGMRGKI

[2] = biological target: T2, IL-9-His recombinant protein (UniProt P15248 19-144); assay: ELISA on IL-9-His, 293F culture supernatant, antibody concentration 1 µg/mL (second well)
T2 construct: range 19-144; used as coating antigen in the ELISAs; also called IL9 (19-144)-His; not shown: His tag, C-terminal by the vector name
T2 sequence (P15248 19-144 limits assumed, form in doubt): as above

[3] = biological target: T2, IL-9-His recombinant protein; assay: BLI (ForteBio), antibody on Protein A sensor, antigen 7.81-125 nM in solution
Source text: The affinity of a humanized antibody was detected by ForteBio (BLI). […] An affinity detection procedure was as follows: equilibration for 60 s, binding for 180 s, and dissociation for 180 s.

[4] = biological target: T1, biotin-conjugated IL-9-Fc …; assay: flow cytometry blocking assay (IL9-IL9R blocking determination): serially diluted antibody against the binding of Biotin-IL-9-Fc to 293-IL-9R cells (IL-9R), MFI; unit taken from the x axis, the table prints none
[5] = biological target: T2, IL-9-His recombinant protein; assay: ELISA on coated IL-9-His, OD450; unit taken from the x axis, the table prints none
Procedure: (§1) ELISA was conducted according to a standard protocol to determine the affinity of a purified antibody for the IL-9-His recombinant protein. In short, the IL-9-His recombinant protein was diluted with sterile PBS and added at 100 μL/well to a 96-well plate. The plate was incubated at 4° C. overnight and then blocked with a blocking buffer. 100 μL of a purified anti-IL-9 antibody serially diluted was added to the plate, and the plate was incubated for 1 h at room temperature. PBS was added to a control well. The plate was washed with PBST 3 times. Then 100 μL of horseradish peroxidase (HRP)-labeled anti-mouse IgG H&L (BIODRAGON, CAT #BF03001) was added, and the plate was incubated for 1 h at room temperature. The plate was washed with PBST 3 times. Then a chromogenic reaction was conducted with a 3,3′,5,5′-tetramethylbenzidine (TMB) chromogenic solution at room temperature. An OD value in each well was read by a microplate reader. Data was processed with PRISM GraphPad, and curves were plotted. The EC₅₀ value for each candidate antibody was calculated.

[6] = biological target: T2, IL-9-His recombinant protein; assay: ELISA on IL-9-His, 293F culture supernatant, antibody concentration 2 µg/mL
Procedure: as §1

[7] = biological target: T2, IL-9-His recombinant protein; assay: ELISA on IL-9-His, 293F culture supernatant, antibody concentration 2 µg/mL (second well)
Procedure: as §1

[8] = biological target: T2, IL-9-His recombinant protein; assay: ELISA on IL-9-His, 293F culture supernatant, antibody concentration 1 µg/mL
Procedure: as §1

[9] = biological target: T1, biotin-conjugated IL-9-Fc …; assay: flow cytometry blocking assay (IL-9-IL-9R blocking determination): serially diluted antibody against the binding of Biotin-IL-9-Fc to 293-IL-9R cells (IL-9R), MFI; unit taken from the x axis, the table prints none
Procedure: The plate was washed with PBS once. […] Washing was conducted with PBS, and then resuspension was conducted with PBS. Flow cytometry was conducted.

| Binder | EC50 [1] | ELISA OD450 [2] | Kd [3] | koff [3] | kon [3] | EC50 [4] | EC50 [5] | ELISA OD450 [6] | ELISA OD450 [7] | ELISA OD450 [8] | EC50 [9] |
| --- | --- | --- | --- | --- | --- | --- | --- | --- | --- | --- | --- |
| 29-B9-F5-B6 chimeric antibody (CA3) (antibody, V domains shown) VH: EVQLQESGAELMKPGASVKISCKATGYTFSSYWIEWVKQRPGHGLEWIGQILPGSGSNNYNERFKGKATFTADTSSNTAYMQLSSLTSEDSAVYYCAREGNYGEAWFAYWGQGTLVTVSA VL: DILLTQSPATLSVTPGDSVSLSCRASQSISNNLHWYQQKSHESPRLLIKYASQSMSGIPSRFSGSGSGTDFTLSINSVETEDFGMYFCQQSNSWPLTFGAGTKLELK | 8.47 µg/mL | 2.62 OD450 | – | – | – | – | – | 2.56 OD450 | 2.45 OD450 | 2.71 OD450 | – |
| 7F3com (antibody, V domains shown, also called IL-9 positive control antibody; IL-9 positive antibody) VH: QVQLVQSGAEVKKPGSSVKVSCKASGGTFSYYWIEWVRQAPGQGLEWMGEILPGSGTTNPNEKFKGRVTITADESTSTAYMELSSLRSEDTAVYYCARADYYGSDYVKFDYWGQGTLVTVSS VL: DIQMTQSPSSLSASVGDRVTITCKASQHVITHVTWYQQKPGKAPKLLIYGTSYSYSGVPSRFSGSGSGTDFTLTISSLQPEDFATYYCQQFYEYPLTFGGGTKVEIK | – | – | – | – | – | – | 0.0459 µg/mL | – | – | – | 10.2 µg/mL |

The next lines start with the values.

| EC50 [1] | ELISA OD450 [2] | Kd [3] | koff [3] | kon [3] | EC50 [4] | EC50 [5] | ELISA OD450 [6] | ELISA OD450 [7] | ELISA OD450 [8] | EC50 [9] | Binder |
| --- | --- | --- | --- | --- | --- | --- | --- | --- | --- | --- | --- |
| 5.96 µg/mL | 2.55 OD450 | 440 pM | 0.000934 s⁻¹ | 2.13e+06 M⁻¹ s⁻¹ | 2.07 µg/mL | 0.022 µg/mL | 2.48 OD450 | 2.6 OD450 | 2.43 OD450 | – | 38-D8-C7-G9 chimeric antibody (CA1) (antibody, V domains shown, also called CA1 antibody; human-mouse chimeric antibody CA1) VH: EVQLKQSGAELMKPGASVKLSCKATGYTFTGYWIEWVKLRPGHGLEWIGEILPGSGSTNYNEEFKGKATFTADTSSNTAYMQLNSLTTEDSAIYYCARRTYYYGIPEDYWGQGTSVTVSS VL: DIVMTQSQKFMSTSVGDRVSVTCKASQNVGTNVAWHQQKPGQSPKPLIYSASYRYSGVPDRFTGSGSGTDFTLTISNVQSEDLAEYFCQQYNSYPLTFGAGTKLELK |
| 15.8 µg/mL | 2.62 OD450 | – | – | – | – | – | 2.49 OD450 | 2.46 OD450 | 2.66 OD450 | – | 31-D6-B8-B8 chimeric antibody (CA2) (antibody, V domains shown) VH: EVQLKESGPGLVKPSQSLSLTCSVTGYSSTSGYYWNWIRQFPGNKLEWMGYIRYDGSSNHNPSLKNRISITRDTSKNQFFLKLNSVTTEDTATYYCASYGITYDAMDYWGQGTSVTVSS VL: DIQLTQPPASLSASVGETVTITCRASENIDSYLAWYQQKQGKSPQLLVYAATLLADGVPSRFSGSGSGTQYSLKINSLQSEDVARYYCQHYYSTPWTFGGGTKLELK |
